From patent US20240083959A1 (published 2024)

T1: recombinant human LPHN2 lectin-olfactomedin-like domain, residues F26-P394 (human, UniProt O95490 26-394)
T1 chain: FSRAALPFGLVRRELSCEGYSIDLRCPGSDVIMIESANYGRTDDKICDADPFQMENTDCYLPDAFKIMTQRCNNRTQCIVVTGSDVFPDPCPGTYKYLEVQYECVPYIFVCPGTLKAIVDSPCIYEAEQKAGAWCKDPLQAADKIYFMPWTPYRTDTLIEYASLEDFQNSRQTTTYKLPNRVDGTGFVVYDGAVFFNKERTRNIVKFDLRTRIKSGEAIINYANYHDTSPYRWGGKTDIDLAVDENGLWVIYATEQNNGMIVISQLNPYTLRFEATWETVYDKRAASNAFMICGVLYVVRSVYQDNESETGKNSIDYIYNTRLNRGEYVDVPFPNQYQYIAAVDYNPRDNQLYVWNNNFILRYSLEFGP

B1: deglycosylated LRG1 (LRG1 treated with PNGase F) (ligand)
chain: VTLSPKDCQVFRSDHGSSISCQPPAEIPGYLPADTVHLAVEFFNLTHLPANLLQGASKLQELHLSSNGLESLSPEFLRPVPQLRVLDLTRNALTGLPPGLFQASATLDTLVLKENQLEVLEVSWLHGLKALGHLDLSGNRLRKLPPGLLANFTLLRTLDLGENQLETLPPDLLRGPLQLERLHLEGNKLQVLGKDLLLPQPDLRYLFLNGNKLARVAAGAFQGLRQLDMLDLSNNSLASVPEGLWASLGQPNWDMRDGFDISGNPWICDQNLSDLYRWLQAQKDKMFSQNDTRCAGPEAVKGQTLLAVAKSQ
modifications: N-linked glycans removed with PNGase F (sites N79, N186, N269, N325 on SEQ ID NO: 1)
B2: recombinant human LRG1 (leucine-rich alpha-2 glycoprotein 1), residues V36-Q347, untagged, glycosylated (ligand)
chain: B1 chain
modifications: glycosyl groups at T37 (O-linked), N79, N186, N269 and N325 (N-linked), numbered on SEQ ID NO: 1
B3: DG-LRG1 (ligand)
chain: B1 chain
modifications: N-linked glycans removed with PNGase F (sites N79, N186, N269, N325 on SEQ ID NO: 1)

What was measured:
[1] = biological target: T1, recombinant human LPHN2 …; assay: solid-phase binding (ELISA)
LPHN2 Lec = assay: solid-phase binding (ELISA)

Binder	Kd [1]	Kd (LPHN2 Lec)
B1	430 nM	–
B2	890 nM	–
B3	–	1100 nM
